According to US20160272683A1 (Novo Nordisk, published 2016):
Numbered stars: 1 amine (or outer) side, 2 acyl side, 3 side chain; on linkers, the order of the positions; unused ones are H or OH. * marks the point of attachment. C20 diacid = O=C(O)CCCCCCCCCCCCCCCCCCC(=O)*; C18 diacid = O=C(O)CCCCCCCCCCCCCCCCC(=O)*; γGlu = O=C(O)[C@H](CCC(=O)[*:2])N[*:1]; C14 diacid = O=C(O)CCCCCCCCCCCCC(=O)*

T1: human amylin 3(a) receptor (human calcitonin receptor co-expressed with RAMP-3) (human, UniProt P30988 25-474; O60896 24-148, limits assumed)
T1 sequence (looked up) 1: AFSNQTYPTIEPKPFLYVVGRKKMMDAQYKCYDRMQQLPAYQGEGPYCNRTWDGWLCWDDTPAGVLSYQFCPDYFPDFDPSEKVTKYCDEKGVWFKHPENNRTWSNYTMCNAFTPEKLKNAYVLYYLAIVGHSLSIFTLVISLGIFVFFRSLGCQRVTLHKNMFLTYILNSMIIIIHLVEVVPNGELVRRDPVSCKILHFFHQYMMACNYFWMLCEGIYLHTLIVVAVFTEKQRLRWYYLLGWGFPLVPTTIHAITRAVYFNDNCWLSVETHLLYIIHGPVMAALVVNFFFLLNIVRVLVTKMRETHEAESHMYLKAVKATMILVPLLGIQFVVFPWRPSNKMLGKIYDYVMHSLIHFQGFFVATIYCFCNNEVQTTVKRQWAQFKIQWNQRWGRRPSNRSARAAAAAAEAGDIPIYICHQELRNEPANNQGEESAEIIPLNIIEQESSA
T1 sequence (looked up) 2: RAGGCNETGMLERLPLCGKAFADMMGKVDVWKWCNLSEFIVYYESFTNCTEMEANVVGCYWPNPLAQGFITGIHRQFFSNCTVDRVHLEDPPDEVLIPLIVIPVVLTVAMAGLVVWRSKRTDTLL

T2: human calcitonin receptor (human, UniProt P30988 25-474)
T2 sequence (looked up): T1 sequence (looked up) 1

B1: [N-terminal(C18 diacid), 32H]mimylin (peptide)
peptide: {C18 diacid}-EASELSTAALGRLSAELHELATLPRTETGPEHP-NH2
SMILES: CC(C)C[C@H](NC(=O)[C@H](C)NC(=O)[C@H](C)NC(=O)[C@@H](NC(=O)[C@H](CO)NC(=O)[C@H](CC(C)C)NC(=O)[C@H](CCC(=O)O)NC(=O)[C@H](CO)NC(=O)[C@H](C)NC(=O)[C@H](CCC(=O)O)NC(=O)CCCCCCCCCCCCCCCCC(=O)O)[C@@H](C)O)C(=O)NCC(=O)N[C@@H](CCCNC(=N)N)C(=O)N[C@@H](CC(C)C)C(=O)N[C@@H](CO)C(=O)N[C@@H](C)C(=O)N[C@@H](CCC(=O)O)C(=O)N[C@@H](CC(C)C)C(=O)N[C@@H](Cc1c[nH]cn1)C(=O)N[C@@H](CCC(=O)O)C(=O)N[C@@H](CC(C)C)C(=O)N[C@@H](C)C(=O)N[C@H](C(=O)N[C@@H](CC(C)C)C(=O)N1CCC[C@H]1C(=O)N[C@@H](CCCNC(=N)N)C(=O)N[C@H](C(=O)N[C@@H](CCC(=O)O)C(=O)N[C@H](C(=O)NCC(=O)N1CCC[C@H]1C(=O)N[C@@H](CCC(=O)O)C(=O)N[C@@H](Cc1c[nH]cn1)C(=O)N1CCC[C@H]1C(N)=O)[C@@H](C)O)[C@@H](C)O)[C@@H](C)O
B2: [N-terminal(C18 diacid), 5I, 9I]mimylin (peptide)
peptide: {C18 diacid}-EASEISTAILGRLSAELHELATLPRTETGPESP-NH2
SMILES: CC[C@H](C)[C@H](NC(=O)[C@H](C)NC(=O)[C@@H](NC(=O)[C@H](CO)NC(=O)[C@@H](NC(=O)[C@H](CCC(=O)O)NC(=O)[C@H](CO)NC(=O)[C@H](C)NC(=O)[C@H](CCC(=O)O)NC(=O)CCCCCCCCCCCCCCCCC(=O)O)[C@@H](C)CC)[C@@H](C)O)C(=O)N[C@@H](CC(C)C)C(=O)NCC(=O)N[C@@H](CCCNC(=N)N)C(=O)N[C@@H](CC(C)C)C(=O)N[C@@H](CO)C(=O)N[C@@H](C)C(=O)N[C@@H](CCC(=O)O)C(=O)N[C@@H](CC(C)C)C(=O)N[C@@H](Cc1c[nH]cn1)C(=O)N[C@@H](CCC(=O)O)C(=O)N[C@@H](CC(C)C)C(=O)N[C@@H](C)C(=O)N[C@H](C(=O)N[C@@H](CC(C)C)C(=O)N1CCC[C@H]1C(=O)N[C@@H](CCCNC(=N)N)C(=O)N[C@H](C(=O)N[C@@H](CCC(=O)O)C(=O)N[C@H](C(=O)NCC(=O)N1CCC[C@H]1C(=O)N[C@@H](CCC(=O)O)C(=O)N[C@@H](CO)C(=O)N1CCC[C@H]1C(N)=O)[C@@H](C)O)[C@@H](C)O)[C@@H](C)O
B3: [N-terminal(C18 diacid), 5V, 9V]mimylin (peptide)
peptide: {C18 diacid}-EASEVSTAVLGRLSAELHELATLPRTETGPESP-NH2
SMILES: CC(C)C[C@H](NC(=O)[C@H](CCC(=O)O)NC(=O)[C@H](Cc1c[nH]cn1)NC(=O)[C@H](CC(C)C)NC(=O)[C@H](CCC(=O)O)NC(=O)[C@H](C)NC(=O)[C@H](CO)NC(=O)[C@H](CC(C)C)NC(=O)[C@H](CCCNC(=N)N)NC(=O)CNC(=O)[C@H](CC(C)C)NC(=O)[C@@H](NC(=O)[C@H](C)NC(=O)[C@@H](NC(=O)[C@H](CO)NC(=O)[C@@H](NC(=O)[C@H](CCC(=O)O)NC(=O)[C@H](CO)NC(=O)[C@H](C)NC(=O)[C@H](CCC(=O)O)NC(=O)CCCCCCCCCCCCCCCCC(=O)O)C(C)C)[C@@H](C)O)C(C)C)C(=O)N[C@@H](C)C(=O)N[C@H](C(=O)N[C@@H](CC(C)C)C(=O)N1CCC[C@H]1C(=O)N[C@@H](CCCNC(=N)N)C(=O)N[C@H](C(=O)N[C@@H](CCC(=O)O)C(=O)N[C@H](C(=O)NCC(=O)N1CCC[C@H]1C(=O)N[C@@H](CCC(=O)O)C(=O)N[C@@H](CO)C(=O)N1CCC[C@H]1C(N)=O)[C@@H](C)O)[C@@H](C)O)[C@@H](C)O
B4: [N-terminal(C18 diacid), 23Y]mimylin (peptide)
peptide: {C18 diacid}-EASELSTAALGRLSAELHELATYPRTETGPESP-NH2
SMILES: CC(C)C[C@H](NC(=O)[C@H](C)NC(=O)[C@H](C)NC(=O)[C@@H](NC(=O)[C@H](CO)NC(=O)[C@H](CC(C)C)NC(=O)[C@H](CCC(=O)O)NC(=O)[C@H](CO)NC(=O)[C@H](C)NC(=O)[C@H](CCC(=O)O)NC(=O)CCCCCCCCCCCCCCCCC(=O)O)[C@@H](C)O)C(=O)NCC(=O)N[C@@H](CCCNC(=N)N)C(=O)N[C@@H](CC(C)C)C(=O)N[C@@H](CO)C(=O)N[C@@H](C)C(=O)N[C@@H](CCC(=O)O)C(=O)N[C@@H](CC(C)C)C(=O)N[C@@H](Cc1c[nH]cn1)C(=O)N[C@@H](CCC(=O)O)C(=O)N[C@@H](CC(C)C)C(=O)N[C@@H](C)C(=O)N[C@H](C(=O)N[C@@H](Cc1ccc(O)cc1)C(=O)N1CCC[C@H]1C(=O)N[C@@H](CCCNC(=N)N)C(=O)N[C@H](C(=O)N[C@@H](CCC(=O)O)C(=O)N[C@H](C(=O)NCC(=O)N1CCC[C@H]1C(=O)N[C@@H](CCC(=O)O)C(=O)N[C@@H](CO)C(=O)N1CCC[C@H]1C(N)=O)[C@@H](C)O)[C@@H](C)O)[C@@H](C)O
B5: [N-terminal(C18 diacid-gGlu), des1, 30S]mimylin (peptide)
peptide: {C18 diacid-γGlu}-ASELSTAALGRLSAELHELATLPRTETGSESP-NH2
SMILES: CC(C)C[C@H](NC(=O)[C@H](C)NC(=O)[C@H](C)NC(=O)[C@@H](NC(=O)[C@H](CO)NC(=O)[C@H](CC(C)C)NC(=O)[C@H](CCC(=O)O)NC(=O)[C@H](CO)NC(=O)[C@H](C)NC(=O)CC[C@H](NC(=O)CCCCCCCCCCCCCCCCC(=O)O)C(=O)O)[C@@H](C)O)C(=O)NCC(=O)N[C@@H](CCCNC(=N)N)C(=O)N[C@@H](CC(C)C)C(=O)N[C@@H](CO)C(=O)N[C@@H](C)C(=O)N[C@@H](CCC(=O)O)C(=O)N[C@@H](CC(C)C)C(=O)N[C@@H](Cc1c[nH]cn1)C(=O)N[C@@H](CCC(=O)O)C(=O)N[C@@H](CC(C)C)C(=O)N[C@@H](C)C(=O)N[C@H](C(=O)N[C@@H](CC(C)C)C(=O)N1CCC[C@H]1C(=O)N[C@@H](CCCNC(=N)N)C(=O)N[C@H](C(=O)N[C@@H](CCC(=O)O)C(=O)N[C@H](C(=O)NCC(=O)N[C@@H](CO)C(=O)N[C@@H](CCC(=O)O)C(=O)N[C@@H](CO)C(=O)N1CCC[C@H]1C(N)=O)[C@@H](C)O)[C@@H](C)O)[C@@H](C)O
B6: [N-terminal(C18 diacid)]mimylin (peptide)
peptide: {C18 diacid}-EASELSTAALGRLSAELHELATLPRTETGPESP-NH2
SMILES: CC(C)C[C@H](NC(=O)[C@H](C)NC(=O)[C@H](C)NC(=O)[C@@H](NC(=O)[C@H](CO)NC(=O)[C@H](CC(C)C)NC(=O)[C@H](CCC(=O)O)NC(=O)[C@H](CO)NC(=O)[C@H](C)NC(=O)[C@H](CCC(=O)O)NC(=O)CCCCCCCCCCCCCCCCC(=O)O)[C@@H](C)O)C(=O)NCC(=O)N[C@@H](CCCNC(=N)N)C(=O)N[C@@H](CC(C)C)C(=O)N[C@@H](CO)C(=O)N[C@@H](C)C(=O)N[C@@H](CCC(=O)O)C(=O)N[C@@H](CC(C)C)C(=O)N[C@@H](Cc1c[nH]cn1)C(=O)N[C@@H](CCC(=O)O)C(=O)N[C@@H](CC(C)C)C(=O)N[C@@H](C)C(=O)N[C@H](C(=O)N[C@@H](CC(C)C)C(=O)N1CCC[C@H]1C(=O)N[C@@H](CCCNC(=N)N)C(=O)N[C@H](C(=O)N[C@@H](CCC(=O)O)C(=O)N[C@H](C(=O)NCC(=O)N1CCC[C@H]1C(=O)N[C@@H](CCC(=O)O)C(=O)N[C@@H](CO)C(=O)N1CCC[C@H]1C(N)=O)[C@@H](C)O)[C@@H](C)O)[C@@H](C)O

How the values were obtained:
[1] = target: T1, human amylin 3(a) receptor (human …); experiment: cell-based or functional assay
[2] = target: T2, human calcitonin receptor; experiment: cell-based or functional assay

Row | Binder | hAmylin-R funct. EC50 (pM) [1] [pM] | hCTR funct. EC50 (pM) [2] [pM]
1 | {C18 diacid}-EASELSTAALGRLSAELHELATLPRTETGSGSP-NH2 [[N-terminal(C18 diacid), 30S, 31G]mimylin] | 9 | 6
2 | B1 | 20 | 17
3 | {C14 diacid-γGlu}-ASELSTAALGRLSAELHELATLPRTETGPESP-NH2 [[N-terminal(C14 diacid-gGlu), des1]mimylin] | 8 | 3
4 | B2 | 10 | 7
5 | B3 | 20 | 14
6 | {C20 diacid}-EASELSTAALGRLSAELHELATLPRTETGSGSP-NH2 [[N-terminal(C20 diacid), 30S, 31G]mimylin] | 11 | 9
7 | B4 | 11 | 7
8 | B5 | 9 | 4
9 | B6 | 8 | 5
